Experiments:
Experiment in all cases: Km for hydrolysis of fluorogenic substrate Arg2-2NA
[1] = substrate: N=C(N)NCCC[C@H](NC(=O)[C@@H](N)CCCNC(=N)N)C(=O)Nc1ccc2ccccc2c1; type: biochemical; settings: other: pH 7.4 (20 mM Tris–HCl buffer), 25 °C, initial reaction rates
Method: (§1) The Km values for hydrolysis of fluorogenic substrate Arg2-2NA were determined at pH 7.4 (20 mM Tris–HCl buffer) and at 25 °C, from the initial reaction rates as previously described.[26]

[2] = substrate: N=C(N)NCCC[C@H](NC(=O)[C@@H](N)CCCNC(=N)N)C(=O)Nc1ccc2ccccc2c1; type: biochemical, Bacteroides thetaiotaomicron; settings: other: pH 7.4 (20 mM Tris–HCl buffer), 25 °C, initial reaction rates, B. thetaiotaomicron DPP III
Method: as §1

[3] = substrate: N=C(N)NCCC[C@H](NC(=O)[C@@H](N)CCCNC(=N)N)C(=O)Nc1ccc2ccccc2c1; type: biochemical, yeast (Saccharomyces cerevisiae); settings: other: pH 7.4 (20 mM Tris–HCl buffer), 25 °C, initial reaction rates, yeast DPP III
Method: as §1

B1: Physcomitrella patens DPP III (Physcomitrium patens) (protein)
chain: MEGFQEEFSLGECLDVLTAAGLRTGDVKKRHLVHADGDYHRAVHVWLFVESTQELVLQKRADCKDSWPGLWDISSAGHISAGDTSLLTARRELQEELGITLPADAFEFLFDYLQECVINGGKYINNEYNDVYLVTLVDHIPVEAFTLQETEVSAVKYMKWQDYEDAVRKEDSSYVPCDVDGGYSALFSALRRRYEVDTSAKLEELQMHINRYVPVEIHGETTGLSKGDLLALSDTIRAAKLLDRIFLEQEWATNPALKDSLQAASGKSELDRLKFAYYLINKSPWSILDENDAFLTTADSAIQIAEGAVDESVTWGGKVRYRAAFPVEKAPGANFYPVDMDKEEFQAWKDGLDKGQQADATSFFTTIRRSGDIHDADGAKVHDLKIVPYSKEYATILKEASYLLHKAGDSAENPSLKRLLKAKADAFLSNDYYESDIAWMELDSPLDVTIGPYETYEDGLFGYKATFEAFIGIRDDEATQRLKLFSHNLQEMEDNLPMDDEYKSKTVTFSPIRVIQLLYNSGDVKGPQTVAFNLPNDDRIVKERGTAMVMLKNISQAKFDYILLPIANVCVEASQRGAVDFDSFFTHTICHECCHGIGPHNIVTPDGRASTVRLELQEVYSAIEEAKADIVGLWALHFLVDKGLLPRSLENTMYVSFLAGCFRSIRFGLEEAHGKGQALQFNFILEKGGFSYHPDGTFSVDYTKVRQCVEDLSRLILTIEAKGDKAGAEALLAKYAALTPQLQQSFDALQDVQVPVDIFPTFKLLDDIKL
- Km ([1]; Physcomitrella patens DPP III): 23.8 µM

B2: Porphyromonas gingivalis DPP III (Porphyromonas gingivalis W83) (protein)
chain: MTKETTQHRSGERIARFADIEVLSYRADLFGTLTPKQRMLCYHLSEAALRGRDITTIQNCRYNLWVRSLMERIYTHLSKSERTDDFALLEEYLFCIWFANGIHHHYSGAKFIARFSPGFLRAALREAGVELEPEEQVLLERVLYDTDFLPKQTEQSGEEDIIKASSVNFYAPGITRAEAESHYKNLIEALPENEKSCPPSFGLNTRLIRSTSGELKDEVCCIDGLYGPAIEAVVASLEAAIPYTENEEQAACIRLLCDYYRTGDIRLYDRFCIRWVENNRTRIDFINGFTEVYADPIGIHGSWEGLVHMQDEEAGRRTRIISEHAGWFEAHSPIDARFRKKNPHGISATVVNVLTIAGDSYPATPIGINLPNADWIRAEHGSKSVTIDNITDAYNHAARGTGLYEEFIPDEEVRRHVELHADLTDSLHTDLHECLGHGSGQLLPGVPGDALGEHASTLEETRADLFALYFLADPKMIELGLLTDPDAYKANYYKYMLNGLMTQLVRIKRGEEIEEAHMRNRALIARYVLEHAERPGAMSLVCEEGKTALVIKDYEAVRAIIAGLLTEVQRIKSEGDYTAGKALVERYAVHVDPLLHEEVLTRYAKLDIAPYKGFVNPRLRPVYNSEGRLTDATIEYTEGYAEQMLRYSAEYSFLPTDSPLLQEARRLRSHLRRAMDGVLSASMREKGLHYGINFGVTREHLLRLARTADASAPLADYLWRRDVRETKILATMIFPAEELTHEQATRLLREADNVELREQLTANLLERMPEAIRSIGRWIESKETTPDMMTGVLTLAARLFTRGIFPEDVPAEKLLTLAILHLSDEEQKAELRRASALLLKRYGRGSAERTKKVLCLLPESSQDTAPVLYELCEDIRFELDFYPKDE
- Km ([1]; Porphyromonas gingivalis DPP III): 0.3 µM

B3: human DPP III (Homo sapiens) (protein)
chain: ADTQYILPNDIGVSSLDCREAFRLLSPTERLYAYHLSRAAWYGGLAVLLQTSPEAPYIYALLSRLFRAQDPDQLRQHALAEGLTEEEYQAFLVYAAGVYSNMGNYKSFGDTKFVPNLPKEKLERVILGSEAAQQHPEEVRGLWQTCGELMFSLEPRLRHLGLGKEGITTYFSGNCTMEDAKLAQDFLDSQNLSAYNTRLFKEVDGEGKPYYEVRLASVLGSEPSLDSEVTSKLKSYEFRGSPFQVTRGDYAPILQKVVEQLEKAKAYAANSHQGQMLAQYIESFTQGSIEAHKRGSRFWIQDKGPIVESYIGFIESYRDPFGSRGEFEGFVAVVNKAMSAKFERLVASAEQLLKELPWPPTFEKDKFLTPDFTSLDVLTFAGSGIPAGINIPNYDDLRQTEGFKNVSLGNVLAVAYATQREKLTFLEEDDKDLYILWKGPSFDVQVGLHELLGHGSGKLFVQDEKGAFNFDQETVINPETGEQIQSWYRSGETWDSKFSTIASSYEECRAESVGLYLCLHPQVLEIFGFEGADAEDVIYVNWLNMVRAGLLALEFYTPEAFNWRQAHMQARFVILRVLLEAGEGLVTITPTTGSDGRPDARVRLDRSKIRSVGKPALERFLRRLQVLKSTGDVAGGRALYEGYATVTDAPPECFLTLRDTVLLRKESRKLIVQPNTRLEGSDVQLLEYEASAAGLIRSFSERFPEDGPELEEILTQLATADARFWKGPSEAPSGQA
- Km ([1]; human DPP III): 6.0 µM

B4: Caldithrix abyssi DPP III (Caldithrix abyssi DSM 13497) (protein)
chain: MKRILLVLLTLVFLGAIACQKKEENKTEMVKLKRMIAQFAPTEIKYDHSLLDERKQKVVENLYRAAKIMDEIFLDQVYSKNFEIREQLRASSDPLDQLRLEYFTIMFGPFDRLNHDKPFIGNTPKPKGANFYPPDMTREEFENWLKAHPEDEAAFTSEFTVIRRQDGKLVAIPYSEYYKEYLTRAADYLKKAAEFADNPSLKKYLQLRAEAFLNNDYYESDLAWMDLNDHTIEVVIGPYEVYEDKLFNYKAAFEAFITLRDPVESAKLKKFVGYLDEMEKNLPIPDAYKNFNRGSESPMVVVQEVFSAGDTKAGVQTLAFNLPNDERVREAKGSKKVMLKNIHEAKFDKLLKPIAEKVLFAEQLPLVTFEGFFNHTLMHEISHGLGPGKIVLNGRQTEVKKELKETYSSIEECKADVLGMYNNLFMIEKGVYPPEFEKQIYVTFLAGIFRTIRFGINEAHGAGNAVIFNYLLEKGAYQFDPAAHRVKVNFEKIKDGVRDLANKVLTIQAQGDYMAAKNLLETYAVESEPIMIMRARLQELPVDIKPIFQIEKELGNSN
- Km ([1]; Caldithrix abyssi DPP III): 15.9 µM

B5: B. thetaiotaomicron DPP III (Bacteroides thetaiotaomicron VPI-5482) (protein)
chain: MAVTATILASCGGAKTTTAEADKFDYTVEQFADLQILRYKVPEFETLTLKQKELVYYLTQAALEGRDILFDQNGKYNLRIRRMLEAVYTNYKGDKSAPDFKNMEVYLKRVWFSNGIHHHYGMEKFVPGFSQDFLKQAVLGTDAQLLPLSEGQTAEQLCDELFPVMFDPAILAKRVNQADGEDLVLTSACNYYDGVTQQEAESFYGAMKDPKDETPVSYGLNSRLVKEDGKIQEKVWKVGGLYTQAIEKIVYWLKKAETVAENDAQKAVISKLIQFYETGSLKDFDEYAILWVKDLDSRIDFVNGFTESYGDPLGVKASWESLVNFKDLDATHRTEIISSNAQWFEDHSPVDKSFKKEKVKGVSAKVITAAILAGDLYPATAIGINLPNANWIRAHHGSKSVTIGNITDAYNKAAHGNGFNEEFVCNDEERQRIDQYGDLTGELHTDLHECLGHGSGKLLPGVDPDALKAYGSTIEEARADLFGLYYVADPKLVELKLVPDAEAYKAEYYTFLMNGLMTQLVRIEPGNNIEEAHMRNRQLIARWVFEKGAPDKVVEMVKKDGKTYVVVNDYEKVRQLFGELLAEIQRIKSTGDFEGARTLVENYAVKVDPALHAEVLARYKKLNLAPYKGFINPVYELVTDKDGNITDVTVSYNEDYVEQMLRYSKDYSPLPSVNN
- Km [2]: 0.8 µM

B6: yeast DPP III (Saccharomyces cerevisiae S288C) (protein)
chain: MSHFFADHDAPLSMLSVKTEYFPQLTDKEQKYAHFMSKASHAGSRVVMRQVSHESEPIFDLILAIHSKLNGKYPEDDITQKQQTGLYLEYVSQFLSNLGNFKSFGDTKFIPRCEVKFFKQLLELAKINPCSSPLTLSPVDVNHEFTSHHLFSTINELIDIGIYHVEEKAALLGFPSQGYTSAYYLGLPVTPEDMALLKEQLFAELAILPENTRINKVGENSFQIWVASENVKNQITETYPSGQITLSNAVTKVEFIFGDHSREMRLVASYLKEAQKFAANDTQKAMLQEYINHFVTGSSQAHKEAQKLWVKDISPVIETNIGFIETYREPSGIIGEFESLVAIQNKERTAKFSSLVNNAEEFISLLPWSKDYEKPIFNPPDFTSLEVLTFTGSGIPAGINIPNYDDVRLKIGFKNVSLGNILSAAAKSSSKHPPSFISQEDRPIFEKYQSDSFEVQVGIHELLGHGSGKLLTEFTDGFNFDKENPPLGLDGKPVSTYYKVGETWGSKFGQLAGPFEECRAEVIAMFLLTNKKILDIFGFHDVESQDKVIYAGYLQMARAGLLALEYWNPKTGKWGQPHMQARFSIMKTFMKHSTDKNFLKLEMNSTNDDFAIKLDKSLIKTAGHECVKDYLKHLHVYKCSGDVEQGSKYFIDRSTVTPDLASLRDIVLSKRLPRRQFIQSNSYIDDNNKVTLKEYDETPQGMLQSFLDREL
- Km [3]: 12 µM

From article PMC9079729, “Conservation of the conformational dynamics and ligand binding within M49 enzyme family” (RSC Advances, 2018)
